± gives the standard deviation of the averaged measurements.
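Further: PSI is a weighted mean of sequencing reads over stability bins, variants kept only with over 10 reads, mCherry proximal and sfGFP distal, peptide attached via GGGS linker.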

The subject of this data set is Saccharomyces cerevisiae. In words: protein stability index of tFT-peptide fusion (C-terminal peptide) (PSI (0-1 scale)); higher = more stable (slower turnover). Conditions: genetic background: wild type; temperature: 30 C.
For STEFCRIIYRGP, the protein stability index is 0.681 ± 0.023.

For STICQRSTSGKG, the protein stability index came out at 0.657 ± 0.031.

STLAPRVYLRLR: the protein stability index is 0.676 ± 0.032.

STPLLLSPPLFC showed a protein stability index of 0.649 ± 0.04.

As for STPSMGSMTRLE, the protein stability index worked out at 0.731 ± 0.041.

With STPSPPPAPRSP, the protein stability index was 0.708 ± 0.015.

For the sequence STPVEATQDVAR, the protein stability index was 0.724 ± 0.0083.

The sequence STQGAFHFLVSL yielded a protein stability index of 0.679 ± 0.015.

STRFVRNEFGVS had a protein stability index of 0.665 ± 0.035.

Take STVFAICQVLPI: the protein stability index worked out at 0.6592 ± 0.0021.

Consider STVGSKLCWESS, for which the protein stability index turned out to be 0.682 ± 0.072.

The sequence SVCEWSRVGIRL showed a protein stability index of 0.6476 ± 0.0056.

With SVETVSSSSVAD, the protein stability index worked out at 0.656 ± 0.057.

In the case of SVFERDWTGGEV, the protein stability index amounted to 0.7184 ± 0.00085.

For SVGFVGVGCRGR, the protein stability index was found to be 0.707 ± 0.025.

SVGGVGGAVGGG had a protein stability index of 0.663 ± 0.014.

The sequence SVGLTGHGTRGV showed a protein stability index of 0.571.

Turning to SVGPWVSSGGFR, the protein stability index came out at 0.6664 ± 0.0048.

In turn, SVHAMDCNGYAN displayed a protein stability index of 0.643 ± 0.013.

The sequence SVLRWAVLGQTR gave a protein stability index of 0.728 ± 0.18.

For the sequence SVLSVAIRAPTQ, the protein stability index was determined as 0.691 ± 0.093.

In the case of SVLVLPVLFLED, the protein stability index was found to be 0.6884 ± 0.004.

As for SVMFSSLTRPPL, the protein stability index was 0.65 ± 0.11.

Sequence SVPGLELGLPLR came in with a protein stability index of 0.675 ± 0.061.

Sequence SVPRPPPPRAPL gave a protein stability index of 0.646 ± 0.17.

In turn, SVRCPPLSPRPP displayed a protein stability index of 0.667 ± 0.036.

SVRLTYQNIIVN had a protein stability index of 0.583 ± 0.02.

As to SVSRGAPSGSLG, the protein stability index came to 0.688 ± 0.067.

As to SVSRGSWVWGRL, the protein stability index was 0.723 ± 0.061.

SVTTNDQLPCHS gave a protein stability index of 0.691 ± 0.026.

Sequence SVVGHGVCGGRG gave a protein stability index of 0.649 ± 0.11.

Regarding SVVSSDVGGGRI, the protein stability index was 0.5391 ± 0.0047.

In turn, SVYGIASRAQLL showed a protein stability index of 0.64 ± 0.11.

SWCRCLALLDCT displayed a protein stability index of 0.659 ± 0.028.

Sequence SWGGGGGGAGRG showed a protein stability index of 0.653 ± 0.017.

SWPLIFSLPNFI showed a protein stability index of 0.716 ± 0.026.

In the case of SWPMLSVLADER, the protein stability index was 0.717 ± 0.04.

SWPPCPSGRGRG: the protein stability index was found to be 0.727 ± 0.029.

Regarding SWPTRRLVVHGL, the protein stability index is 0.655 ± 0.0071.

SWRRRNGNCERR registered a protein stability index of 0.646 ± 0.063.

SYDNPPDTSRPR: the protein stability index was 0.768 ± 0.046.

In turn, SYFVIPGLSLSV came in with a protein stability index of 0.568 ± 0.056.

On to SYGADSVSYLKT, for which the protein stability index is 0.651 ± 0.033.

The sequence SYGPKMAKAVFR displayed a protein stability index of 0.706 ± 0.056.

SYKAFVFSSDVW returned a protein stability index of 0.77 ± 0.045.

Turning to SYKIDYIDIRVG, the protein stability index came out at 0.59 ± 0.029.

Sequence SYLHALSRPSLL had a protein stability index of 0.734 ± 0.03.

Sequence SYLPLGTVLMLG gave a protein stability index of 0.681 ± 0.032.

In the case of SYPDYFDSDSSD, the protein stability index amounted to 0.716 ± 0.011.

SYSPPPLPPHPP showed a protein stability index of 0.55109 ± 0.00031.

SYTAPPLLRSSY: the protein stability index amounted to 0.679 ± 0.015.

With TAQKHQQPVQLH, the protein stability index was found to be 0.715 ± 0.028.

TARDLEGTRAKG gave a protein stability index of 0.638 ± 0.028.

In the case of TASAAKGAAPQQ, the protein stability index was determined as 0.676 ± 0.016.

TASFVSSGLLAF returned a protein stability index of 0.586 ± 0.012.

Sequence TASLQGCANGQS had a protein stability index of 0.674 ± 0.012.

Consider TAVPRARRRVVR, for which the protein stability index was determined as 0.712 ± 0.018.

Regarding TCLMLSCRSFLW, the protein stability index was found to be 0.63 ± 0.018.

In turn, TDFRSGLIFIIV returned a protein stability index of 0.544 ± 0.045.

TDLGYGRLGGWV showed a protein stability index of 0.682 ± 0.083.

TEIKILNKKKSR returned a protein stability index of 0.7294 ± 0.0043.

With TELSLHFAGYAE, the protein stability index was 0.74 ± 0.031.

With TERGRLVWYCMR, the protein stability index came out at 0.674 ± 0.077.

Regarding TETAHNFPYCCD, the protein stability index came to 0.676 ± 0.025.

As for TEVRHMKGVAWW, the protein stability index was 0.6919 ± 0.0044.

TFENLFRLPWFK registered a protein stability index of 0.699 ± 0.052.

Take TFLYLSGRVVGL: the protein stability index was 0.651 ± 0.013.

For the sequence TFPGRLPLTRLP, the protein stability index turned out to be 0.726 ± 0.038.

TFPPLSPSPPLS: the protein stability index was determined as 0.727 ± 0.13.

As for TFSVPLPPPLAP, the protein stability index was determined as 0.6573 ± 0.0038.

As for TFVVGTRVFSCD, the protein stability index was 0.631 ± 0.096.

As for TFYLHSLLPTSF, the protein stability index is 0.6913 ± 0.0024.

Sequence TGCGSRSSRTKT gave a protein stability index of 0.864 ± 0.021.

Take TGCRAVPDLNAD: the protein stability index is 0.695 ± 0.018.

As to TGIGPWVSPSIC, the protein stability index was determined as 0.667 ± 0.018.

Sequence TGISPWPPSERR yielded a protein stability index of 0.808 ± 0.19.

TGLYLRCVWGVQ had a protein stability index of 0.507 ± 0.046.

On to TGNARCYFGKSV, for which the protein stability index came out at 0.692 ± 0.011.

Take TGNQCGNGYSWR: the protein stability index was 0.696 ± 0.013.

With TGPIIPSDNRFL, the protein stability index is 0.692 ± 0.04.

These data come from the supplement of paper PMC10724198.
